Holding throughout (assay): scFv ELISA
A general note: An ELISA detects its analyte on a solid surface through an enzyme-linked reagent.

One experiment addresses BSA (UniProt P02769).
Experiment [1] has as its target Peptide 1: Biotin-…-[Tyr(PC)]-acid.
Experiment [2] addresses Peptide 5: Biotin-…-[Tyr(PC)]-acid.
The target in experiment [3] is T1, Peptide 4: Biotin-AGGGGSGGGGSGGGGSAAA-Tyr-acid (N-terminal biotin; C-terminal acid).
T1 construct: control peptide without PC
T1 peptide: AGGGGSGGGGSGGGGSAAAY
A digest of the protocol: (§1)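 Bound scFv was read as OD450 after HRP–anti-V5 detection, TMB development and HCl stop. PPE with BSA was incubated 1 h at RT on BSA-blocked wells coated overnight at 4° C. with peptide, or on streptavidin wells loaded 1 h with biotinylated PC-peptides at 1 μg/mL.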

For experiment [4], the target named is T2, Peptide 8: Biotin-AEAAAKEAAAKEAAAKEAAAKAAA-Tyr-acid (N-terminal biotin; C-terminal acid).
T2 construct: control peptide without PC
T2 peptide: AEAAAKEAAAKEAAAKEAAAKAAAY
A digest of the protocol:
as §1

Sequence of BSA (P02769 25-607 limits assumed): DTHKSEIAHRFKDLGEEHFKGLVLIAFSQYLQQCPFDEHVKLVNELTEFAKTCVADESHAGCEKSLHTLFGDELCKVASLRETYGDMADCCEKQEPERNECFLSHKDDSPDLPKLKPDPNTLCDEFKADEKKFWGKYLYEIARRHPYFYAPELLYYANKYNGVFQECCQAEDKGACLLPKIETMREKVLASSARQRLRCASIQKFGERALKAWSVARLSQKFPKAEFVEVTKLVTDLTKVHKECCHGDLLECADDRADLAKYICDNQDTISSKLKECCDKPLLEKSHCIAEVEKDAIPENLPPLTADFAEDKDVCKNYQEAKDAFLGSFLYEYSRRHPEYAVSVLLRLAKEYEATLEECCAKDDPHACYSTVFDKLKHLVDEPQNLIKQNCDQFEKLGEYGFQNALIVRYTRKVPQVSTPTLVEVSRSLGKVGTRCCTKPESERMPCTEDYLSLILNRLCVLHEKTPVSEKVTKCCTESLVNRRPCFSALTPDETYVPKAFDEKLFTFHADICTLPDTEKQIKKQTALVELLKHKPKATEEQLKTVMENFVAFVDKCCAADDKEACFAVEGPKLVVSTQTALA

B1: PcOxP_DB02_G06 (scFv, V domains shown)
VH: EVQLLESGGGLVQPGGSLRLSCAASGFTFSSYYMEWVRQAPGKGLEWVAASRNQANDYTTEYADSVKGRFTISRDNSKNTLYLQMNSLRAEDTAVYYCARDYYGSPYWYFDVWGQGTLVTVSS
VL: DIQMTQSPSSLSASVGDRVTITCTASESLYSSKHKVHYLAWYQQKPGKAPKLLIYGVSNRYIGVPSRFSGSGSGTDFTLTISSLQPEDFATYYCAQFYSYPLTFGGGTKVEIK
notes: scFv in periplasmic extract
Consider B1, for which the OD450 with BSA was 0.08 OD450; in experiment [1] it was 0.43 OD450; in experiment [2], 0.87 OD450; in experiment [3], 0.06 OD450; in experiment [4] it was 0.05 OD450.

B2: PcOxP_DB02_G09 (scFv, V domains shown)
VH: EVQLLESGGGLVQPGGSLRLSCAASGFTFSDQYMEWVRQAPGKGLEWVAASRNKANDYTTEYADSVKGRFTISRDNSKNTLYLQMNSLRAEDTAVYYCARDYYGSSYWYFDVWGQGTLVTVSS
VL: DIQMTQSPSSLSASVGDRVTITCTASESLYSSKHKVHYLAWYQQKPGKAPKLLIYGASNRPIGVPSRFSGSGSGTDFTLTISSLQPEDFATYYCAQFYSYPLTFGGGTKVEIK
notes: scFv in periplasmic extract
For the molecule B2, the OD450 was 0.1 OD450 with BSA; 0.35 OD450 in experiment [1]; 0.71 OD450 in experiment [2]; 0.05 OD450 in experiment [3]; 0.04 OD450 in experiment [4].

B3: PcOxP_DB03_C03 (scFv, V domains shown)
VH: EVQLLESGGGLVQPGGSLRLSCAASGFTFSDFYMEWVRQAPGKGLEWVAASRNKYNDYTTEYADSVKGRFTISRDNSKNTLYLQMNSLRAEDTAVYYCARDYYGSSYWYFDVWGQGTLVTVSS
VL: DIQMTQSPSSLSASVGDRVTITCTASESLYSSKHKVHYLAWYQQKPGKAPKLLIYGASNRYIGVPSRFSGSGSGTDFTLTISSLQPEDFATYYCAQFYSYPLTFGGGTKVEIK
notes: scFv in periplasmic extract
For the molecule B3, the OD450 in the experiment with BSA is 0.09 OD450; in experiment [1], 1.36 OD450; in experiment [2] it was 1.66 OD450; in experiment [3] it was 0.05 OD450; in experiment [4] it was 0.05 OD450.

B4: PcOxP_DB03_C12 (scFv, V domains shown)
VH: EVQLLESGGGLVQPGGSLRLSCAASGFTFSDYYMEWVRQAPGKGLEWVAASRNKANDYTTEYADSVKGRFTISRDNSKNTLYLQMNSLRAEDTAVYYCARDYYGSSYWYFDVWGQGTLVTVSS
VL: DIQMTQSPSSLSASVGDRVTITCTASESLYSSKHKVHYLAWYQQKPGKAPKLLIYGASNRYGGVPSRFSGSGSGTDFTLTISSLQPEDFATYYCAQFYSYPLTFGGGTKVEIK
notes: scFv in periplasmic extract
Take B4: the OD450 in the experiment with BSA stood at 0.09 OD450; in experiment [1] it was 2.74 OD450; in experiment [2] it was 1.77 OD450; in experiment [3], 0.05 OD450; in experiment [4], 0.05 OD450.

B5: PcOxP_DB03_B02 (scFv, V domains shown)
VH: EVQLLESGGGLVQPGGSLRLSCAASGFAFSDFYMEWVRQAPGKGLEWVAASRNKANDYTTEYADSVKGRFTISRDNSKNTLYLQMNSLRAEDTAVYYCARDYYGSSYWYFDVWGQGTLVTVSS
VL: DIQMTQSPSSLSASVGDRVTITCTASESLYSSKHKVHYLAWYQQKPGKAPKLLIYGASNRYDGVPSRFSGSGSGTDFTLTISSLQPEDFATYYCAQFYEYPLTFGGGTKVEIK
notes: scFv in periplasmic extract
On to B5, for which the OD450 came out at 0.07 OD450 with BSA; 2.02 OD450 in experiment [1]; 1.64 OD450 in experiment [2]; 0.05 OD450 in experiment [3]; 0.05 OD450 in experiment [4].

B6: PcOxP_DB03_A03 (scFv, V domains shown)
VH: EVQLLESGGGLVQPGGSLRLSCAASGFTFSDFYMEWVRQAPGKGLEWVAASRNKANDYTTEYADSVKGRFTISRDNSKNTLYLQMNSLRAEDTAVYYCARDYYGSSYWYFDVWGQGTLVTVSS
VL: DIQMTQSPSSLSASVGDRVTITCTASESLYSSKHKVHYLAWYQQKPGKAPKLLIYGASFRYIGVPSRFSGSGSGTDFTLTISSLQPEDFATYYCAQFYSYPLTFGGGTKVEIK
notes: scFv in periplasmic extract
For the molecule B6, the OD450 in the experiment with BSA is 0.09 OD450; in experiment [1] it was 0.54 OD450; in experiment [2] it was 0.81 OD450; in experiment [3] it was 0.06 OD450; in experiment [4] it was 0.06 OD450.

B7: PcOxP_DB03_A11 (scFv, V domains shown)
VH: EVQLLESGGGLVQPGGSLRLSCAASGFTFSSYYMEWVRQAPGKGLEWVAASRNQANDYTTEYADSVKGRFTISRDNSKNTLYLQMNSLRAEDTAVYYCARDYYGSSYWYLDVWGQGTLVTVSS
VL: DIQMTQSPSSLSASVGDRVTITCTASESLYSSKHKVHYLAWYQQKPGKAPKLLIYGADNRYIGVPSRFSGSGSGTDFTLTISSLQPEDFATYYCAQFYHYPLTFGGGTKVEIK
notes: scFv in periplasmic extract
Regarding B7, the OD450 in the experiment with BSA stood at 0.08 OD450; in experiment [1], 1.12 OD450; in experiment [2], 1.08 OD450; in experiment [3], 0.05 OD450; in experiment [4], 0.05 OD450.

B8: PcOxP_DB03_C11 (scFv, V domains shown)
VH: EVQLLESGGGLVQPGGSLRLSCAASGFDFSDFYMEWVRQAPGKGLEWVAASRNKANDYTTDYADSVKGRFTISRDNSKNTLYLQMNSLRAEDTAVYYCARDYFGSSYWYFDVWGQGTLVTVSS
VL: DIQMTQSPSSLSASVGDRVTITCTASESLYSSKHKVHYLAWYQQKPGKAPKLLIYGASNRYQGVPSRFSGSGSGTDFTLTISSLQPEDFATYYCAQFYFYPLTFGGGTKVEIK
notes: scFv in periplasmic extract
On to B8, for which the OD450 with BSA was 0.07 OD450; in experiment [1], 1.14 OD450; in experiment [2] it was 0.75 OD450; in experiment [3] it was 0.05 OD450; in experiment [4], 0.04 OD450.

B9: PcOxP_DB02_H10 (scFv, V domains shown)
VH: EVQLLESGGGLVQPGGSLRLSCAASGFTFSDYYMEWVRQAPGKGLEWVAASRNKANDYTTEYADSVKGRFTISRDNSKNTLYLQMNSLRAEDTAVYYCARDYYGSSYWYFDVWGQGTLVTVSS
VL: DIQMTQSPSSLSASVGDRVTITCTASESLYSSKHKVHYLAWYQQKPGKAPKLLIYGAGNRYIGVPSRFSGSGSGTDFTLTISSLQPEDFATYYCAQFYEYPLTFGGGTKVEIK
notes: scFv in periplasmic extract
With B9, the OD450 with BSA was 0.08 OD450; in experiment [1], 1.43 OD450; in experiment [2], 1.39 OD450; in experiment [3] it was 0.05 OD450; in experiment [4], 0.05 OD450.

B10: PcOxP_DB03_A09 (scFv, V domains shown)
VH: EVQLLESGGGLVQPGGSLRLSCAASGFTFSDYYMEWVRQAPGKGLEWVAASRNKANDYTTEYADSVKGRFTISRDNSKNTLYLQMNSLRAEDTAVYYCARDYYGSSYWYFDVWGQGTLVTVSS
VL: DIQMTQSPSSLSASVGDRVTITCTASESLYSSKHKVHYLAWYQQKPGKAPKLLIYGASNRGIGVPSRFSGSGSGTDFTLTISSLQPEDFATYYCAQFYSYPLTFGGGTKVEIK
notes: scFv in periplasmic extract
In the case of B10, the OD450 came to 0.09 OD450 with BSA; 1.02 OD450 in experiment [1]; 1.09 OD450 in experiment [2]; 0.05 OD450 in experiment [3]; 0.05 OD450 in experiment [4].

B11: PcOxP_DB03_D01 (scFv, V domains shown)
VH: EVQLLESGGGLVQPGGSLRLSCAASGFTFSDEYMEWVRQAPGKGLEWVAASRNKANDYTTEYADSVKGRFTISRDNSKNTLYLQMNSLRAEDTAVYYCARDYYGSSYWYFDVWGQGTLVTVSS
VL: DIQMTQSPSSLSASVGDRVTITCTASESLYSSKHKVHYLAWYQQKPGKAPKLLIYGASNRYIGVPSRFSGSGSGTDFTLTISSLQPEDFATYYCAQFYYYPLTFGGGTKVEIK
notes: scFv in periplasmic extract
As to B11, the OD450 amounted to 0.08 OD450 with BSA; 2.51 OD450 in experiment [1]; 1.6 OD450 in experiment [2]; 0.05 OD450 in experiment [3]; 0.05 OD450 in experiment [4].

B12: PcOxP_DB03_A08 (scFv, V domains shown)
VH: EVQLLESGGGLVQPGGSLRLSCAASGFTFSDVYMEWVRQAPGKGLEWVAASRNKANDYTTEYADSVKGRFTISRDNSKNTLYLQMNSLRAEDTAVYYCARDYYGSSYWYFDVWGQGTLVTVSS
VL: DIQMTQSPSSLSASVGDRVTITCTASESLYSSKHKVHYLAWYQQKPGKAPKLLIYGASNRYIGVPSRFSGSGSGTDFTLTISSLQPEDFATYYCAQFYSYPLTFGGGTKVEIK
notes: scFv in periplasmic extract
Consider B12, for which the OD450 stood at 0.11 OD450 with BSA; 0.67 OD450 in experiment [1]; 0.71 OD450 in experiment [2]; 0.06 OD450 in experiment [3]; 0.05 OD450 in experiment [4].

B13: PcOxP_DB03_C06 (scFv, V domains shown)
VH: EVQLLESGGGLVQPGGSLRLSCAASGATFSDFYMEWVRQAPGKGLEWVAASRNGANDYTTEYADSVKGRFTISRDNSKNTLYLQMNSLRAEDTAVYYCARDYYGNSYWYFDVWGQGTLVTVSS
VL: DIQMTQSPSSLSASVGDRVTITCTASESLYSSKHKVHYLAWYQQKPGKAPKLLIYGASNRQSGVPSRFSGSGSGTDFTLTISSLQPEDFATYYCAQFYVYPLTFGGGTKVEIK
notes: scFv in periplasmic extract
Regarding B13, the OD450 was found to be 0.07 OD450 with BSA; 0.64 OD450 in experiment [1]; 0.61 OD450 in experiment [2]; 0.05 OD450 in experiment [3]; 0.05 OD450 in experiment [4].

B14: PcOxP_DB02_G07 (scFv, V domains shown)
VH: EVQLLESGGGLVQPGGSLRLSCAASGFTFSDGYMEWVRQAPGKGLEWVAASRNKANDYTTEYADSVKGRFTISRDNSKNTLYLQMNSLRAEDTAVYYCARDYYGSSYWYFDVWGQGTLVTVSS
VL: DIQMTQSPSSLSASVGDRVTITCTASESLYSSKHKVHYLAWYQQKPGKAPKLLIYGASNRYGGVPSRFSGSGSGTDFTLTISSLQPEDFATYYCAQFYSYPLTFGGGTKVEIK
notes: scFv in periplasmic extract
As to B14, the OD450 with BSA turned out to be 0.1 OD450; in experiment [1] it was 0.52 OD450; in experiment [2] it was 0.99 OD450; in experiment [3], 0.05 OD450; in experiment [4], 0.09 OD450.

B15: PcOxP_DB02_H03 (scFv, V domains shown)
VH: EVQLLESGGGLVQPGGSLRLSCAASGFTFSDFYMEWVRQAPGKGLEWVAASRNKANDYTTEYADSVKGRFTISRDNSKNTLYLQMNSLRAEDTAVYYCARDYYGSSYWYFDVWGQGTLVTVSS
VL: DIQMTQSPSSLSASVGDRVTITCTASESISSSKHKVHYLAWYQQKPGKAPKLLIYGASNLYSGVPSRFSGSGSGTDFTLTISSLQPEDFATYYCAHFYSYPLTFGGGTKVEIK
notes: scFv in periplasmic extract
Regarding B15, the OD450 with BSA stood at 0.08 OD450; in experiment [1], 0.27 OD450; in experiment [2], 0.82 OD450; in experiment [3], 0.05 OD450; in experiment [4], 0.05 OD450.
